# Measured values published in ChEMBL document CHEMBL1123068, “2-Fluoroformycin and 2-aminoformycin. Synthesis and biological activity” (J Med Chem, 1985).
# How the values were obtained:
# [1] = substrate: Nc1nc(F)nc2c1ncn2[C@@H]1O[C@H](CO)[C@@H](O)[C@@H]1O; assay: (§1) Kinetic parameter was determined against adenosine deaminase expressed as Vmax
# [2] = substrate: Nc1nc(N)c2ncn([C@@H]3O[C@H](CO)[C@@H](O)[C@H]3O)c2n1; assay: as §1
# [3] = substrate: Nc1ncnc2c1ncn2[C@@H]1O[C@H](CO)[C@@H](O)[C@H]1O; assay: as §1
# [4] = substrate: Nc1nc(F)nc2c1ncn2[C@@H]1O[C@H](CO)[C@@H](O)[C@@H]1O; assay: Kinetic parameter was determined against adenosine deaminase expressed as Km
protein,measurement,setting,value
"Adenosine deaminase (Bos taurus), P56658 (protein) MAQTPAFNKPKVELHVHLDGAIKPETILYYGRKRGIALPADTPEELQNIIGMDKPLSLPEFLAKFDYYMPAIAGCREAVKRIAYEFVEMKAKDGVVYVEVRYSPHLLANSKVEPIPWNQAEGDLTPDEVVSLVNQGLQEGERDFGVKVRSILCCMRHQPSWSSEVVELCKKYREQTVVAIDLAGDETIEGSSLFPGHVKAYAEAVKSGVHRTVHAGEVGSANVVKEAVDTLKTERLGHGYHTLEDATLYNRLRQENMHFEVCPWSSYLTGAWKPDTEHPVVRFKNDQVNYSLNTDDPLIFKSTLDTDYQMTKNEMGFTEEEFKRLNINAAKSSFLPEDEKKELLDLLYKAYGMPSPASAEQCL",Vmax,[1],0.78 M/min/mg
same,Vmax (µmol min-1 mg-1),[2],119
same,Vmax (µmol min-1 mg-1),[3],435
same,Km,[4],81 µM
